Measurements published in the supplement of paper PMC9112550, “Optimization of the antimicrobial peptide Bac7 by deep mutational scanning” (BMC Biology, 2022).

Each sequence was assayed on Escherichia coli TOP10 (assay: shrunken log2 fold change of peptide-encoding DNA abundance (4.5 h post-induction vs induction); higher = less antimicrobial activity (less host growth inhibition)). Details: time post-induction: 4.5 h; library: site-saturation at positions 5, 18, 19, 20.
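Note: peptides expressed intracellularly from a pBAD plasmid library in pooled LB shake-flask culture, induced with 0.3% L-arabinose, DNA abundance read by NGS, three biological replicates, DESeq2 with apeglm shrinkage.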

Sequence	shrunken log2 fold change
RRIRQRPPRLPRPRPRPNVRPRP	0.0221
RRIRIRPPRLPRPRPRPFPDPRP	-0.131
RRIRCRPPRLPRPRPRPQALPRP	0.0319
RRIRARPPRLPRPRPRPVSLPRP	-0.0174
RRIRFRPPRLPRPRPRPFRGPRP	-0.224
RRIRVRPPRLPRPRPRPRQGPRP	0.317
RRIRARPPRLPRPRPRPQAEPRP	0.892
RRIRMRPPRLPRPRPRPYQTPRP	-0.0231
RRIRYRPPRLPRPRPRPEADPRP	0.123
RRIRLRPPRLPRPRPRPRFQPRP	0.0867
RRIRYRPPRLPRPRPRPGCVPRP	-0.202
RRIRARPPRLPRPRPRPVFNPRP	-0.297
RRIRKRPPRLPRPRPRPYGKPRP	-0.154
RRIRQRPPRLPRPRPRPYTAPRP	-0.219
RRIRERPPRLPRPRPRPQIAPRP	0.0377
RRIRGRPPRLPRPRPRPRQVPRP	0.585
RRIRARPPRLPRPRPRPSMCPRP	-0.081
RRIRWRPPRLPRPRPRPHHLPRP	-0.71
RRIRQRPPRLPRPRPRPNFAPRP	0.24
RRIRARPPRLPRPRPRPNHNPRP	-0.542

Sequence	shrunken log2 fold change
RRIRHRPPRLPRPRPRPSEKPRP	-0.144
RRIRWRPPRLPRPRPRPYNRPRP	-1.09
RRIRARPPRLPRPRPRPWAVPRP	0.295
RRIRRRPPRLPRPRPRPPCNPRP	0.36
RRIRFRPPRLPRPRPRPRCGPRP	0.114
RRIRMRPPRLPRPRPRPQTTPRP	0.634
RRIRIRPPRLPRPRPRPYCGPRP	-0.179
RRIRPRPPRLPRPRPRPRLDPRP	0.0787
RRIRFRPPRLPRPRPRPACSPRP	0.0139
RRIRSRPPRLPRPRPRPFVWPRP	-0.0361
RRIRDRPPRLPRPRPRPMKGPRP	0.0395
RRIRRRPPRLPRPRPRPRSPPRP	0.49
RRIRTRPPRLPRPRPRPRAVPRP	0.617
RRIRIRPPRLPRPRPRPRTRPRP	0.0709
RRIRWRPPRLPRPRPRPVNEPRP	-0.0791
RRIRARPPRLPRPRPRPIPQPRP	-0.0224
RRIRVRPPRLPRPRPRPIYPPRP	-0.413
RRIRRRPPRLPRPRPRPTTKPRP	0.0527
RRIRQRPPRLPRPRPRPRFWPRP	0.23
RRIRVRPPRLPRPRPRPTWGPRP	0.436

Sequence	shrunken log2 fold change
RRIRRRPPRLPRPRPRPMRAPRP	0.905
RRIRARPPRLPRPRPRPTIIPRP	-0.0837
RRIRRRPPRLPRPRPRPSTVPRP	-0.117
RRIRNRPPRLPRPRPRPYDDPRP	0.00769
RRIRFRPPRLPRPRPRPCELPRP	0.00618
RRIRRRPPRLPRPRPRPYQYPRP	-0.0327
RRIRNRPPRLPRPRPRPRVFPRP	-0.036
RRIRIRPPRLPRPRPRPAFFPRP	0.0559
RRIRQRPPRLPRPRPRPKLAPRP	-0.0518
RRIRKRPPRLPRPRPRPEKWPRP	0.422
RRIRTRPPRLPRPRPRPIDFPRP	0.0107
RRIRWRPPRLPRPRPRPWSLPRP	0.0526
RRIRKRPPRLPRPRPRPMKYPRP	-0.152
RRIRDRPPRLPRPRPRPQMIPRP	-0.197
RRIRSRPPRLPRPRPRPWQEPRP	0.131
RRIRQRPPRLPRPRPRPHKLPRP	-0.544
RRIRWRPPRLPRPRPRPMDTPRP	0.128
RRIRWRPPRLPRPRPRPDGHPRP	0.0237
RRIRGRPPRLPRPRPRPDTDPRP	1.01
RRIRYRPPRLPRPRPRPSAIPRP	-0.939
